According to IntAct's records for PubMed 31515488:

B1: Defensin-6 (Homo sapiens), Q01524 (parent)
chain: MRTLTILTAVLLVALQAKAEPLQAEDDPLQAKAYEADAQEQRGANDQDFAVSFAEDASSSLRALGSTRAFTCHCRRSCYSTEYSYGTCTVMGINHRFCCL
B2: Cysteine-rich secretory protein 2 (Homo sapiens), P16562 (parent)
chain: MALLPVLFLVTVLLPSLPAEGKDPAFTALLTTQLQVQREIVNKHNELRKAVSPPASNMLKMEWSREVTTNAQRWANKCTLQHSDPEDRKTSTRCGENLYMSSDPTSWSSAIQSWYDEILDFVYGVGPKSPNAVVGHYTQLVWYSTYQVGCGIAYCPNQDSLKYYYVCQYCPAGNNMNRKNTPYQQGTPCAGCPDDCDKGLCTNSCQYQDLLSNCDSLKNTAGCEHELLKEKCKATCLCENKIY
partner: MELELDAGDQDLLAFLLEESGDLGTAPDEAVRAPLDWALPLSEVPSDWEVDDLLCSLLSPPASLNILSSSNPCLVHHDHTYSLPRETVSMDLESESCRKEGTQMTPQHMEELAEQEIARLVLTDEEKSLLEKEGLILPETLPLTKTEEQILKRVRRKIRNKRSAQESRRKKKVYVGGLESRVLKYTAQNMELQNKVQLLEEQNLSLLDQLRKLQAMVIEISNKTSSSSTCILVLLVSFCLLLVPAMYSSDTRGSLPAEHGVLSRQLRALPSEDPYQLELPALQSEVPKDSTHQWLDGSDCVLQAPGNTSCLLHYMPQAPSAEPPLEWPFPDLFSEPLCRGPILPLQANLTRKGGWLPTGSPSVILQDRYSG
B3: E3 ubiquitin-protein ligase TRIM17 (Homo sapiens), Q9Y577 (parent)
chain: MEAVELARKLQEEATCSICLDYFTDPVMTTCGHNFCRACIQLSWEKARGKKGRRKRKGSFPCPECREMSPQRNLLPNRLLTKVAEMAQQHPGLQKQDLCQEHHEPLKLFCQKDQSPICVVCRESREHRLHRVLPAEEAVQGYKLKLEEDMEYLREQITRTGNLQAREEQSLAEWQGKVKERRERIVLEFEKMNLYLVEEEQRLLQALETEEEETASRLRESVACLDRQGHSLELLLLQLEERSTQGPLQMLQDMKEPLSRKNNVSVQCPEVAPPTRPRTVCRVPGQIEVLRGFLEDVVPDATSAYPYLLLYESRQRRYLGSSPEGSGFCSKDRFVAYPCAVGQTAFSSGRHYWEVGMNITGDALWALGVCRDNVSRKDRVPKCPENGFWVVQLSKGTKYLSTFSALTPVMLMEPPSHMGIFLDFEAGEVSFYSVSDGSHLHTYSQATFPGPLQPFFCLGAPKSGQMVISTVTMWVKG
partner: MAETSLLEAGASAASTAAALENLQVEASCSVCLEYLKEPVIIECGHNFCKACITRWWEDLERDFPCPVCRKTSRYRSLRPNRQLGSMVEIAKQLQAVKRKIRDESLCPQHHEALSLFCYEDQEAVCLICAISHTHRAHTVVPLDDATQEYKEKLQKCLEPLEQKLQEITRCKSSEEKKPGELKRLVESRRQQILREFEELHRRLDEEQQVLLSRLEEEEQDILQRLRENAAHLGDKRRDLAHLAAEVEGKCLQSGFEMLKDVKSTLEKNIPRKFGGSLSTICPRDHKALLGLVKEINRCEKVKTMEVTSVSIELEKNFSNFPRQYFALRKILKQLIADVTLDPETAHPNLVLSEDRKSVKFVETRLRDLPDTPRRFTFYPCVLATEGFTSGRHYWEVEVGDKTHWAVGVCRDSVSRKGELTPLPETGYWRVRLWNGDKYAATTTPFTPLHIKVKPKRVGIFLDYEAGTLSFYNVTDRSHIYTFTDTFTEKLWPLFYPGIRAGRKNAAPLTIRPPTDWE
B4: Protein FAM9B (Homo sapiens), Q8IZU0 (parent)
chain: MAAWGKKHAGKDPVRDECEERNRFTETREEDVTDEHGEREPFAETDEHTGANTKKPEDTAEDLTAKRKRMKMDKTCSKTKNKSKHALRKKQLKRQKRDYIHSLKLLNVLEEYITDEQKEEEEEEGEEEELIRIFQEQQKKWQQYRSVRRERLKEMKLLRDQFVKALEDFEDLCDRVFSDEDSELDN
partner: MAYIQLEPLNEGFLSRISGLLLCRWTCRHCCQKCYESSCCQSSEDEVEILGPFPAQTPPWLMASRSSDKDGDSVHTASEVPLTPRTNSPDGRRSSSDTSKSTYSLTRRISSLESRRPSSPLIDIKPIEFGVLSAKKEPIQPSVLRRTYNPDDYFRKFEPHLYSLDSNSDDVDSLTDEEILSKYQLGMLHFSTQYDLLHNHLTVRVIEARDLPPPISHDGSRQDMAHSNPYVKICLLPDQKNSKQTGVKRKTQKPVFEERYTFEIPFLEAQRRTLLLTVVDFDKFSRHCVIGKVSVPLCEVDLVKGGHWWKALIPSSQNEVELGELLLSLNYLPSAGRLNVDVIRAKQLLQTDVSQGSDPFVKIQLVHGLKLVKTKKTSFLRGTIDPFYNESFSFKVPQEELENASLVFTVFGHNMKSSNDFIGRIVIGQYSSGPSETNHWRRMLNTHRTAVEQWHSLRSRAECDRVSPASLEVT
B5: Methylthioribulose-1-phosphate dehydratase (Homo sapiens), Q96GX9 (parent)
chain: MSGCDAREGDCCSRRCGAQDKEHPRYLIPELCKQFYHLGWVTGTGGGISLKHGDEIYIAPSGVQKERIQPEDMFVCDINEKDISGPSPSKKLKKSQCTPLFMNAYTMRGAGAVIHTHSKAAVMATLLFPGREFKITHQEMIKGIKKCTSGGYYRYDDMLVVPIIENTPEEKDLKDRMAHAMNEYPDSCAVLVRRHGVYVWGETWEKAKTMCECYDYLFDIAVSMKKVGLDPSQLPVGENGIV
B6: Glutathione S-transferase Mu 5 (Homo sapiens), P46439 (parent)
chain: MPMTLGYWDIRGLAHAIRLLLEYTDSSYVEKKYTLGDAPDYDRSQWLNEKFKLGLDFPNLPYLIDGAHKITQSNAILRYIARKHNLCGETEEEKIRVDILENQVMDNHMELVRLCYDPDFEKLKPKYLEELPEKLKLYSEFLGKRPWFAGDKITFVDFLAYDVLDMKRIFEPKCLDAFLNLKDFISRFEGLKKISAYMKSSQFLRGLLFGKSATWNSK
partner: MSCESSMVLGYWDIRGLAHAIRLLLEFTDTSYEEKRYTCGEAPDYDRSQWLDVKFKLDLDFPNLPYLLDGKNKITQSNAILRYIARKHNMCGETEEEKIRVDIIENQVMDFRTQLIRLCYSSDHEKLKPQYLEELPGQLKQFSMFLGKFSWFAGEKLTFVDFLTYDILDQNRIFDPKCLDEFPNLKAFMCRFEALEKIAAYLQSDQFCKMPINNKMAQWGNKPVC
B7: BAG family molecular chaperone regulator 5 (Homo sapiens), Q9UL15 (parent)
chain: MDMGNQHPSISRLQEIQKEVKSVEQQVIGFSGLSDDKNYKKLERILTKQLFEIDSVDTEGKGDIQQARKRAAQETERLLKELEQNANHPHRIEIQNIFEEAQSLVREKIVPFYNGGNCVTDEFEEGIQDIILRLTHVKTGGKISLRKARYHTLTKICAVQEIIEDCMKKQPSLPLSEDAHPSVAKINFVMCEVNKARGVLIALLMGVNNNETCRHLSCVLSGLIADLDALDVCGRTEIRNYRREVVEDINKLLKYLDLEEEADTTKAFDLRQNHSILKIEKVLKRMREIKNELLQAQNPSELYLSSKTELQGLIGQLDEVSLEKNPCIREARRRAVIEVQTLITYIDLKEALEKRKLFACEEHPSHKAVWNVLGNLSEIQGEVLSFDGNRTDKNYIRLEELLTKQLLALDAVDPQGEEKCKAARKQAVRLAQNILSYLDLKSDEWEY

Variants of: B1
Settings: with ubql1_human UBQLN1, Q9UMX0
Chain of ubql1_human UBQLN1, Q9UMX0 (Q9UMX0 whole entry): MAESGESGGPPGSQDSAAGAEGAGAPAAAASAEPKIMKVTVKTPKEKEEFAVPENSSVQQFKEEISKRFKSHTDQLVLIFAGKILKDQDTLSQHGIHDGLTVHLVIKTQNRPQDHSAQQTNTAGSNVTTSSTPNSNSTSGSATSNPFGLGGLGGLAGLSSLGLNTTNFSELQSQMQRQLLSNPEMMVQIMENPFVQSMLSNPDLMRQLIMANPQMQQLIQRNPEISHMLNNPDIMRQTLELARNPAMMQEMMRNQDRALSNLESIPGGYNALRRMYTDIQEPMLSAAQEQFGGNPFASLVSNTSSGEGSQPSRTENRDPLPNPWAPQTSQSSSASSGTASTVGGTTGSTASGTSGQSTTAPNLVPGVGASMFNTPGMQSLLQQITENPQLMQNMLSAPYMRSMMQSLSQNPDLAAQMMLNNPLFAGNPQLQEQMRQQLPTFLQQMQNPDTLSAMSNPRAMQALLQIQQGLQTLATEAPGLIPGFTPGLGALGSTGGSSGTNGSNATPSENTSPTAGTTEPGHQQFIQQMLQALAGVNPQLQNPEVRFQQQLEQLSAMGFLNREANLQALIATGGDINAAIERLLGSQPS

effect of a mutation on the interaction | Variant
with no effect | E35D
with no effect | D46E

Variants of: B2
Settings: with creb3_human CREB3, O43889

effect of a mutation on the interaction | Variant
with no effect | C196R

Variants of: B3
Settings: with tri39_human TRIM39, Q9HCM9

effect of a mutation on the interaction | Variant
disrupting interaction strength | T30A
with no effect | E173K

Variants of: B4
Settings: with syt17_human SYT17, Q9BSW7

effect of a mutation on the interaction | Variant
with no effect | R23H

Variants of: B5
Settings: with ntaq1_human NTAQ1, Q96HA8

effect of a mutation on the interaction | Variant
with no effect | M181V
with no effect | G111A

Variants of: B6
Settings: with gstm3_human GSTM3, P21266

effect of a mutation on the interaction | Variant
with no effect | L179P

Variants of: B7
Settings: with thap1_human THAP1, Q9NVV9
Chain of thap1_human THAP1, Q9NVV9 (Q9NVV9 whole entry): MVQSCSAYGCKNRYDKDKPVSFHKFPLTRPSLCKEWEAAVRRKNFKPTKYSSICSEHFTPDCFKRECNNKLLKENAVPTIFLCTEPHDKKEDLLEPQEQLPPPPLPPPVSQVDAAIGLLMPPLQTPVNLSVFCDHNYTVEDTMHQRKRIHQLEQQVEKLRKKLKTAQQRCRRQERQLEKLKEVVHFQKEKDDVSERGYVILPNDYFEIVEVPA

effect of a mutation on the interaction | Variant
with no effect | I279L
